For the assay, the target named is His6-PEX19-WT (1–299 aa), non-farnesylated (human, UniProt P40855 1-299). Briefly: pull-down; His6-PEX19 pull-down of Flag-PEX3ΔN variants at the same concentrations of PEX19 and PEX3 as in the PEX26^Bpa crosslinking experiments (400 nM). As to conditions: both partners purified.

This is an account of results in paper PMC10995880 (iScience, 2024).

Positions count from the first letter of the chain named. Names may count otherwise.

Chain of His6-PEX19-WT (1–299 aa), non-farnesylated (P40855 whole entry, the tested form may be a part): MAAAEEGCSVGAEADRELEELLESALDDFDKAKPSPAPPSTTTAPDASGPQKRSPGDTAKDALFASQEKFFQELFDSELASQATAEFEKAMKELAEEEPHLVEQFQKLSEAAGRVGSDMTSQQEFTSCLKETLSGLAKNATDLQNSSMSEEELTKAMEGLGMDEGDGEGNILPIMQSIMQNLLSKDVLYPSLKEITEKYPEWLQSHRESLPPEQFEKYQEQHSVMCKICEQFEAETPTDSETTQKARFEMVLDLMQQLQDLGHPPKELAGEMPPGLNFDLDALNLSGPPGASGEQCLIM

B1: Flag-PEX3ΔN-G138E (domain or fragment, UniProt P56589 41-373, looked up)
chain: QEREAAEYIAQARRQYHFESNQRTCNMTVLSMLPTLREALMQQLNSESLTALLKNRPSNKLEIWEDLKIISFTRSTVAVYSTCMLVVLLRVQLNIIGEYIYLDNAAVGKNGTTILAPPDVQQQYLSSIQHLLGDGLTELITVIKQAVQKVLGSVSLKHSLSLLDLEQKLKEIRNLVEQHKSSSWINKDGSKPLLCHYMMPDEETPLAVQACGLSPRDITTIKLLNETRDMLESPDFSTVLNTCLNRGFSRLLDNMAEFFRPTEQDLQHGNSMNSLSSVSLPLAKIIPIVNGQIHSVCSETPSHFVQDLLTMEQVKDFAANVYEAFSTPQQLEK
In the case of B1, the binding result is reported as “binds”.

B2: Flag-PEX3ΔN-M72K (domain or fragment, UniProt P56589 41-373, looked up)
chain: B1 chain with M32K, E98G
As to B2, the binding result was “binds”.
